One block for each sequence: values may come before it.
Assays:
HLA-B*45:06 = assay: IEDB peptide-MHC binding, purified MHC/competitive/fluorescence; filed as Kd, often an IC50 or EC50 that approximates it; ≥ and ≤ were set here for values at or beyond the usual limits of such assays
HLA-B*15:42 = assay: as above
HLA-B*27:20 = assay: as above
HLA-B*83:01 = assay: as above
HLA-C*04:01 = assay: as above; conditions: source organism: Yersinia pestis CO92
HLA-C*01:02 = assay: IEDB peptide-MHC binding, purified MHC/direct/fluorescence; filed as Kd, often an IC50 or EC50 that approximates it; ≥ and ≤ were set here for values at or beyond the usual limits of such assays; conditions: source organism: Homo sapiens
HLA-B*35:01 [1] = assay: IEDB peptide-MHC binding, cellular MHC/competitive/fluorescence; ≥ and ≤ were set here for values at or beyond the usual limits of such assays; conditions: source organism: Influenza A virus H3N2
HLA-B*73:01 = assay: IEDB peptide-MHC binding, purified MHC/competitive/fluorescence; filed as Kd, often an IC50 or EC50 that approximates it; ≥ and ≤ were set here for values at or beyond the usual limits of such assays; conditions: source organism: Vibrio cholerae V52
HLA-A*02:01 [2] = assay: IEDB peptide-MHC binding, cellular MHC/competitive/fluorescence; ≥ and ≤ were set here for values at or beyond the usual limits of such assays; conditions: source organism: Measles morbillivirus
HLA-C*08:02 = assay: IEDB peptide-MHC binding, purified MHC/direct/fluorescence; filed as Kd, often an IC50 or EC50 that approximates it; ≥ and ≤ were set here for values at or beyond the usual limits of such assays; conditions: source organism: Burkholderia mallei SAVP1
HLA-A*02:01 [3] = assay: IEDB peptide-MHC binding, purified MHC/competitive/fluorescence; filed as Kd, often an IC50 or EC50 that approximates it; ≥ and ≤ were set here for values at or beyond the usual limits of such assays; conditions: source organism: Burkholderia mallei SAVP1
HLA-A*26:01 [4] = assay: as above; conditions: source organism: Burkholderia mallei SAVP1
HLA-A*02:11 = assay: as above; conditions: source organism: Burkholderia mallei SAVP1
HLA-B*18:01 [5] = assay: as above; conditions: source organism: Burkholderia mallei SAVP1
HLA-A*68:02 [6] = assay: as above; conditions: source organism: Burkholderia mallei SAVP1
HLA-B*46:01 = assay: as above; conditions: source organism: Burkholderia mallei SAVP1
HLA-A*03:01 [7] = assay: as above; conditions: source organism: Burkholderia mallei SAVP1
HLA-B*57:01 [8] = assay: as above; conditions: source organism: Burkholderia mallei SAVP1
HLA-B*15:17 = assay: as above; conditions: source organism: Burkholderia mallei SAVP1
HLA-A*29:02 [9] = assay: as above; conditions: source organism: Burkholderia mallei SAVP1
HLA-B*27:03 = assay: as above; conditions: source organism: Burkholderia mallei SAVP1
HLA-A*69:01 [10] = assay: as above; conditions: source organism: Burkholderia mallei SAVP1
HLA-B*51:01 [11] = assay: as above; conditions: source organism: Burkholderia mallei SAVP1
HLA-A*24:02 [12] = assay: IEDB peptide-MHC binding, purified MHC/competitive/radioactivity; ≥ and ≤ were set here for values at or beyond the usual limits of such assays; conditions: source organism: Homo sapiens
HLA-C*14:02 [13] = assay: IEDB peptide-MHC binding, purified MHC/direct/fluorescence; filed as Kd, often an IC50 or EC50 that approximates it; ≥ and ≤ were set here for values at or beyond the usual limits of such assays; conditions: source organism: Homo sapiens
HLA-A*02:01 [14] = assay: IEDB peptide-MHC binding, purified MHC/competitive/fluorescence; ≥ and ≤ were set here for values at or beyond the usual limits of such assays; conditions: source organism: Homo sapiens
HLA-B*08:01 = assay: as above; conditions: source organism: Homo sapiens
HLA-A*31:01 = assay: as above; conditions: source organism: Homo sapiens
HLA-B*44:03 = assay: as above; conditions: source organism: Homo sapiens
HLA-B*07:02 = assay: as above; conditions: source organism: Homo sapiens
HLA-B*18:01 [15] = assay: as above; conditions: source organism: Homo sapiens
HLA-A*68:02 [16] = assay: as above; conditions: source organism: Homo sapiens
HLA-B*40:02 = assay: as above; conditions: source organism: Homo sapiens
HLA-A*24:02 [17] = assay: as above; conditions: source organism: Homo sapiens
HLA-A*11:01 = assay: as above; conditions: source organism: Homo sapiens
HLA-A*01:01 = assay: as above; conditions: source organism: Homo sapiens
HLA-A*03:01 [18] = assay: as above; conditions: source organism: Homo sapiens
HLA-B*58:01 = assay: as above; conditions: source organism: Homo sapiens
HLA-A*29:02 [19] = assay: as above; conditions: source organism: Homo sapiens
HLA-B*37:01 = assay: as above; conditions: source organism: Homo sapiens
HLA-B*14:02 = assay: as above; conditions: source organism: Homo sapiens
HLA-B*53:01 = assay: as above; conditions: source organism: Homo sapiens
HLA-A*25:01 = assay: as above; conditions: source organism: Homo sapiens
HLA-B*35:01 [20] = assay: as above; conditions: source organism: Homo sapiens
HLA-B*51:01 [21] = assay: as above; conditions: source organism: Homo sapiens
HLA-A*02:01 [22] = assay: IEDB peptide-MHC binding, binding assay; filed as Kd, often an IC50 or EC50 that approximates it; ≥ and ≤ were set here for values at or beyond the usual limits of such assays; conditions: source organism: Severe acute respiratory syndrome coronavirus 2 Indonesia/JI-ITD-12202V/2020
HLA-A*26:01 [23] = assay: IEDB peptide-MHC binding, purified MHC/direct/fluorescence; filed as Kd, often an IC50 or EC50 that approximates it; ≥ and ≤ were set here for values at or beyond the usual limits of such assays; conditions: source organism: Coxiella burnetii Q321
HLA-B*18:01 [24] = assay: as above; conditions: source organism: Coxiella burnetii Q321
HLA-A*03:01 [25] = assay: as above; conditions: source organism: Coxiella burnetii Q321
HLA-B*57:01 [26] = assay: as above; conditions: source organism: Coxiella burnetii Q321
HLA-A*29:02 [27] = assay: as above; conditions: source organism: Coxiella burnetii Q321
HLA-C*07:02 = assay: as above; conditions: source organism: Coxiella burnetii RSA 493
HLA-A*69:01 [28] = assay: as above; conditions: source organism: Coxiella burnetii Q321
HLA-C*14:02 [29] = assay: IEDB peptide-MHC binding, purified MHC/competitive/fluorescence; filed as Kd, often an IC50 or EC50 that approximates it; ≥ and ≤ were set here for values at or beyond the usual limits of such assays; conditions: source organism: Coxiella burnetii RSA 493
HLA-C*06:02 = assay: as above; conditions: source organism: Coxiella burnetii RSA 493
[30] = source organism: Yersinia pestis CO92
[31] = source organism: Coxiella burnetii RSA 493

Sequence: FRDRGQHVL
- Kd (HLA-B*45:06; [30]): ≥ 5000 nM
- Kd (HLA-B*15:42; [30]): ≥ 5000 nM
- Kd (HLA-B*27:20; [30]): 0.4 nM
- Kd (HLA-B*83:01; [30]): ≥ 5000 nM
- Kd (HLA-C*04:01): ≥ 5000 nM

- Kd (HLA-C*01:02): ≤ 0.1 nM
Sequence: HLSSSQLQSL

Sequence: LPFDKPTIM
- IC50 (HLA-B*35:01 [1]): 1600 nM

Sequence: NRTQGGLRA
- Kd (HLA-B*73:01): 136 nM

Sequence: QLPEATFMV
- IC50 (HLA-A*02:01 [2]): 2000 nM

Sequence: RLDARLQVL
- Kd (HLA-C*08:02): 82 nM
- Kd (HLA-A*02:01 [3]): 7.4 nM
- Kd (HLA-A*26:01 [4]): ≥ 20000 nM
- Kd (HLA-A*02:11): 1.1 nM
- Kd (HLA-B*18:01 [5]): ≥ 20000 nM
- Kd (HLA-A*68:02 [6]): ≥ 20000 nM
- Kd (HLA-B*46:01): ≥ 20000 nM
- Kd (HLA-A*03:01 [7]): ≥ 20000 nM
- Kd (HLA-B*57:01 [8]): ≥ 20000 nM
- Kd (HLA-B*15:17): ≥ 20000 nM
- Kd (HLA-A*29:02 [9]): 1020 nM
- Kd (HLA-B*27:03): ≥ 20000 nM
- Kd (HLA-A*69:01 [10]): ≥ 20000 nM
- Kd (HLA-B*51:01 [11]): ≥ 20000 nM

- IC50 (HLA-A*24:02 [12]): 800 nM
Sequence: SFSTTINYTL

- Kd (HLA-C*14:02 [13]): 1120 nM
- IC50 (HLA-A*02:01 [14]): 20.8 nM
- IC50 (HLA-B*08:01): ≥ 20000 nM
- IC50 (HLA-A*31:01): ≥ 20000 nM
- IC50 (HLA-B*44:03): ≥ 20000 nM
- IC50 (HLA-B*07:02): 2510 nM
- IC50 (HLA-B*18:01 [15]): ≥ 20000 nM
- IC50 (HLA-A*68:02 [16]): 1010 nM
- IC50 (HLA-B*40:02): ≥ 20000 nM
- IC50 (HLA-A*24:02 [17]): 1240 nM
- IC50 (HLA-A*11:01): ≥ 20000 nM
- IC50 (HLA-A*01:01): ≥ 20000 nM
- IC50 (HLA-A*03:01 [18]): ≥ 20000 nM
- IC50 (HLA-B*58:01): ≥ 20000 nM
- IC50 (HLA-A*29:02 [19]): 1210 nM
- IC50 (HLA-B*37:01): ≥ 20000 nM
- IC50 (HLA-B*14:02): ≥ 20000 nM
- IC50 (HLA-B*53:01): ≥ 20000 nM
- IC50 (HLA-A*25:01): ≥ 20000 nM
- IC50 (HLA-B*35:01 [20]): ≥ 20000 nM
- IC50 (HLA-B*51:01 [21]): ≥ 20000 nM
Sequence: SLMASSPTSI

Sequence: YLQPRTFLL
- Kd (HLA-A*02:01 [22]): 75 nM

Sequence: YRATYSMAL
- Kd (HLA-A*26:01 [23]): ≥ 20000 nM
- Kd (HLA-B*18:01 [24]): ≥ 20000 nM
- Kd (HLA-A*03:01 [25]): ≥ 20000 nM
- Kd (HLA-B*57:01 [26]): ≥ 20000 nM
- Kd (HLA-A*29:02 [27]): ≥ 20000 nM
- Kd (HLA-C*07:02): 80 nM
- Kd (HLA-A*69:01 [28]): ≥ 20000 nM
- Kd (HLA-B*45:06; [31]): ≥ 5000 nM
- Kd (HLA-B*15:42; [31]): ≥ 5000 nM
- Kd (HLA-B*27:20; [31]): 0.7 nM
- Kd (HLA-B*83:01; [31]): ≥ 5000 nM
- Kd (HLA-C*14:02 [29]): 119 nM
- Kd (HLA-C*06:02): 6.1 nM
